This experiment concerns the target T1, SV2A (rat); native protein of rat brain membranes, solubilized in n-dodecyl-β-D-maltoside; also endogenous in … (rat, UniProt Q02563 1-742).
T1 construct: Native protein from rat tissue or cells, not a recombinant construct; Native glycosylated integral membrane protein; also called soluble SV2A; immunopurified SV2A
The experiment in a line: Western blot of fractions immunopurified with anti-SV2A antibodies from solubilized rat brain membranes. On the procedure:
The rat brain membranes were diluted in a solubilization buffer (Tris-HCl 20 mM pH 7.4, 0.25 M sucrose, protease inhibitors Complete Roche) containing n-dodecyl-β-D-maltoside 15 mM and incubated for two hours at 4° C. Subsequently, the solution was centrifuged at 4° C. for one hour at 100,000 g.

Here are results for one molecule from patent publication US20040204388A1 (UCB, published 2004).

T1 sequence (Q02563 whole entry C340F): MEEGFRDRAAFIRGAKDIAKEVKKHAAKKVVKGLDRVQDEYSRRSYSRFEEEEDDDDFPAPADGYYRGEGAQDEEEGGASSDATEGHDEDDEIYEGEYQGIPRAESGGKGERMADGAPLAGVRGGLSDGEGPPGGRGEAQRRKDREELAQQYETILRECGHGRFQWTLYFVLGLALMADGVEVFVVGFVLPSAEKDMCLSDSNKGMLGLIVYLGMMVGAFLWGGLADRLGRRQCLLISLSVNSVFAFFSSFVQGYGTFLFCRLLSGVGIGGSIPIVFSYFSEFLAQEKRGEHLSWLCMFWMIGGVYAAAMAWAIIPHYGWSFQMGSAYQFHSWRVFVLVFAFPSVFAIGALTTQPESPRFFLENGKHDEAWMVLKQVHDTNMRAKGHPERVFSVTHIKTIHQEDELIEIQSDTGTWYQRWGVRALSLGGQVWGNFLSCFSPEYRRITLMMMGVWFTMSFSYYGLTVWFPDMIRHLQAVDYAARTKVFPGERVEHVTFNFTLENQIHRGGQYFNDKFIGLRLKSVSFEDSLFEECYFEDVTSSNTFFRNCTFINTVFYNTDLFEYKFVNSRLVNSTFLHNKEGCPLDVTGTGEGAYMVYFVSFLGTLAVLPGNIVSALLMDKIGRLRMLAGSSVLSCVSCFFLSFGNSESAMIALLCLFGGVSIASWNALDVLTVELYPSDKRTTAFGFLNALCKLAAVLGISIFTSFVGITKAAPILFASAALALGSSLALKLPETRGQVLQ

B1: SV2B (rat; native isoform in rat brain membranes) (other)
chain: MDDYRYRDNYEGYAPNDGYYRGNEQNPEEDAQSDVTEGHDEEDEIYEGEYQGIPHPDDVKSKQTKMAPSRADGLRGQADLMAERMEDEEQLAHQYETIIDECGHGRFQWTLFFVLVLALMADGVEVFVVSFALPSAEKDMCLSSSKKGMLGLIVYLGMMAGAFILGGLADKLGRKKVLSMSLAINASFASLSSFVQGYGAFLFCRLISGIGIGGSLPIVFAYFSEFLSREKRGEHLSWLGIFWMTGGIYASAMAWSIIPHYGWGFSMGTNYHFHSWRVFVIVCALPATVSMVALKFMPESPRFLLEMGKHDEAWMILKQVHDTNMRAKGTPEKVFTVSHIKTPKQMDEFIEIQSSTGTWYQRWLVRFMTIFKQVWDNALYCVMGPYRMNTLILAVVWFTMALSYYGLTVWFPDMIRYFQDEEYKSKMKVFFGEHVHGATINFTMENQIHQHGKLVNDKFIKMYFKHVLFEDTFFDKCYFEDVTSTDTYFKNCTIESTTFYNTDLYKHKFIDCRFINSTFLEQKEGCHMDFEEDNDFLIYLVSFLGSLSVLPGNIISALLMDRIGRLKMIGGSMLISAVCCFFLFFGNSESAMIGWQCLFCGTSIAAWNALDVITVELYPTNQRATAFGILNGLCKLGAILGNTIFASFVGITKVVPILLAAASLVGGGLVALRLPETREQVLM
notes: Native protein of rat brain; also called isoform SV2B
For the molecule B1, the binding result is given as “no binding”.
